Measurements from the DeepSol protein solubility set.

Assay: soluble on expression in E. coli; label from the status in PepcDB or PDB records

Sequence	soluble on expression in E. coli
MATKSVLMLGSGFVTRPTLDVLTDSGIKVTVACRTLESAKKLSAGVQHSTPISLDVNDDAALDAEVAKHDLVISLIPYTFHATVIKSAIRQKKHVVTTSYVSPAMMELDQAAKDAGITVMNEIGLDPGIDHLYAIKTIEEVHAAGGKIKTFLSYCGGLPAPESSDNPLGYKFSWSSRGVLLALRNAASFYKDGKVTNVAGPELMATAKPYFIYPGFAFVAYPNRDSTPYKERYQIPEADNIVRGTLRYQGFPQFIKVLVDIGFLSDEEQPFLKEAIPWKEATQKIVKASSASEQDIVSTIVSNATFESTEEQKRIVAGLKWLGIFSDKKITPRGNALDTLCATLEEKMQFEEGERDLVMLQHKFEIENKDGSRETRTSSLCEYGAPIGSGGYSAMAKLVGVPCAVAVKFVLDGTISDRGVLAPMNSKINDPLMKELKEKYGIECKEKVVA	soluble
MATLIYVDKENGEPGTRVVAKDGLKLGSGPSIKALDGRSQVSTPRFGKTFDAPPALPKATRKALGTVNRATEKSVKTKGPLKQKQPSFSAKKMTEKTVKAKSSVPASDDAYPEIEKFFPFNPLDFESFDLPEEHQIAHLPLSGVPLMILDEERELEKLFQLGPPSPVKMPSPPWESNLLQSPSSILSTLDVELPPVCCDIDILEHHHHHH	not soluble
MATQKEKPSSNSFKWFSTKTLKLNLSFQNRRRSPKSNSSSTLNSPRSNSDDNNNIKSHQASKEELRQVFSHFDSDGDGKISAFELRHYFGSVGEYISHEAAQEAINEVDTDADGSLGFEDFVGLMTRRDLYGDGEVDGDGELKTAFEMFEVEKGSGCITPKGLQKMLVKLGESRTYGECEAMIKFYDIDGNGILDFHEFRQMMTV	soluble
MATVDPIRYPIGTFQAPQQFEAGEVQEWIAAIRGLPSDLRTAVSGLNDEQLNTPYREGGWTVAQVVHHLADASMNAFLRTKWGVTEDGPTVKPFAESEWAKTADACLLPIEPSLLLLDGLHARWAALLESMTEADFHRTVRPEGAAGEMPLYVLTALYAWHGKHHTAQVASLRKRKGW	soluble
MATVTELKAVLKDTLEKRGVLGHLKARIRAEVFNALDDDREPRPSLSHENLLINELIREYLEFNKYKYTASVLIAESGQPVVPLDRQFLIRELNAFEESKDNSIPLLYGILAHFLRGPPDGAQNVLLTESTLHPATKHLSWKPSRRPDDDHVRKDTGPRTTTEELPAAAQAVSR	soluble
MAVDAVNSAAANPWANAGASSSDKNAASLNYDSFLKLLIAQMKNQDPTSPMDAGQQMSQLASFSQVEQTIKTNTHLKSMLQAEALTRASDLVGKTVMSADDKVTGVVKEVQVFSDGIVAVTEAGDKVLLQAGVVFSNGPITTKSDETTADSNNSAGS	not soluble
MAVDWPRGGLMPRLRRLEDLLPHIREGRYRLGPHAAKHMLQEGFREQDILSALLWGRELAIYPEDERMLVLGYMVFPPRLRLPLHVVLEYSTPRHVDIVTAFIPREPYRVYSRARLAALLRFDGALEEVRWTGPKHLYPPWD	soluble
MAVSHSVKERTISENSLIILLQGLQGRVTTVDLRDESVAHGRIDNVDAFMNIRLAKVTYTDRWGHQVKLDDLFVTGRNVRYVHIPDDVNITSTIEQQLQIIHRVRNFGGKGQGRWEFPPKNCK	not soluble
MAYLYELEGIYAQLQSMDLDEETFQDTLDSIDFQSDLENNIEYFVKMLKNVQADAEKYKAEKEAFYKKQKQAEAKAEKYKETIRLAMELSQKKKVDAGMFKVSLRRSKKVEILDETKIPLDYMQEKIEYKPMKAEISKALKSGIDISGVELIETESLQVK	not soluble
MAYSNDEIVKGIDGIYSNENPNSNIKYVINESRFNASQLCKTKKGIKQMSDEWLLEDGGKRILEAVNGDRKLQKDIIRVLNKGQVEKVLSRVGKDGKVTTYRLNSNGEIIGFWP	not soluble
MAYSYTEKKRIRKDFSKLPDVMDVPYLLAIQLDSYREFLQAGATKEQFRDVGLHAAFKSVFPIISYSGNAALEYVGYRLGEPAFDVKECVLRGVTFAVPLRVKVRLIIFDRESSNKAIKDIKEQEVYMGEIPLMTENGTFIINGTERVIVSQLHRSPGVFFDHDRGKTHSSGKLLYSARIIPYRGSWLDFEFDPKDCVFVRIDRRRKLPASVLLRALGYSTEEILNAFYATNVFHIKGETLNLELVPQRLRGEVASIDIKDGSGKVIVEQGRRITARHINQLEKAGVSQLEVPFDYLIGRTIAKAIVHPATGEIIAECNTELTLDLLAKVAKAQVVRIETLYTNDIDCGPFISDTLKIDNTSNQLEALVEIYRMMRPGEPPTKEAAETLFGNLFFSAERYDLSAVGRMKFNRRIGRTEIEGPGVLSKEDIIDVLKTLVDIRNGKGIVDDIDHLGNRRVRCVGEMAENQFRVGLVRVERAVKERLSMAESEGLMPQDLINAKPVAAAIKEFFGSSQLSQFMDQNNPLSEITHKRRVSALGPGGLTRERAGFEVRDVHPTHYGRVCPIETPEGPNIGLINSLATYARTNKYGFLESPYRVVKDSLVTDEIVFLSAIEEADHVIAQASATLNEKGQLVDELVAVRHLNEFTVKAPEDVTLMDVSPKQVVSVAASLIPFLEHDDANRALMGSNMQRQAVPTLRADKPLVGTGMERNVARDSGVCVVARRGGVIDSVDASRVVVRVADDEVETGEAGVDIYNLTKYTRSNQNTCINQRPLVSKGDVVARGDILADGPSTDMGELALGQNMRVAFMPWNGFNFEDSICLSERVVQEDRFTTIHIQELTCVARDTKLGPEEITADIPNVGEAALNKLDEAGIVYVGAEVQAGDILVGKVTPKGETQLTPEEKLLRAIFGEKASDVKDTSLRVPTGTKGTVIDVQVFTRDGVERDSRALSIEKMQLDQIRKDLNEEFRIVEGATFERLRAALVGAKAEGGPALKKGTEITDDYLDGLERGQWFKLRMADDALNEQLEKAQAYISDRRQLLDDKFEDKKRKLQQGDDLAPGVLKIVKVYLAIKRRIQPGDKMAGRHGNKGVVSVIMPVEDMPHDANGTPVDIVLNPLGVPSRMNVGQILETHLGLAAKGLGEKINRMLEEQRKVAELRKFLHEIYNEIGGREENLDELGDNEILALAKNLRGGVPMATPVFDGAKEREIKAMLKLADLPESGQMRLFDGRTGNQFERPTTVGYMYMLKLNHLVDDKMHARSTGSYSLVTQQPLGGKAQFGGQRFGEMEVWALEAYGAAYTLQEMLTVKSDDVNGRTKMYKNIVDGDHRMEAGMPESFNVLIKEIRSLG	not soluble
MAYWLFKTEPDTFSIDTLRTQKVSCWEGVRNYQARNMMRDQVKVGDFVLIYHSSCKNVGVAGIAKVVREAYPDHFQFDPESDYYDPKSDPDNPRWIMVDIEFVRKTARVIPLSVMKAMPELENMPLVKRGNRLSIMPVTEDEWEAILGKEKLPSQRLEHHHHHH	soluble
MCDKLGGVAIAVQGALFEHNERRQLGDGAFIDIRSGWLTGGEELLDALLSTVPWRAERRQMYDRVVDVPRLVSFHDLTIEDPPHPQLARMRRRLNDIYGGELGEPFTTAGLCYYRDGSDSVAWHGDTIGRGSTEDTMVAIVSLGATRVFALRPRGRGPSLRLPLAHGDLLVMGGSCQRTFEHAVPKTSAPTGPRVSIQFRPRDVR	not soluble
MCEQCGKCKCGECTAPRTLPSCLACNRQCLCSAESMVEYGTCMCLVKGIFYHCSNDDEGDSYSDNPCSCSQSHCCSRYLCMGAMSLFLPCLLCYPPAKGCLKLCRRCYDWIHRPGCRCKNSNTVYCKLESCPSRGQGKPSLEHHHHHH	not soluble
MCFSPEDRKKTDHLLALDGAKERLKLFKADLLDEGSFELAIDGCETVFHTASPVAITVKTDPQVELINPAVNGTINVLRTCTKVSSVKRVILTSSMAAVLAPETKLGPNDVVDETFFTNPSFAEERKQWYVLSKTLAEDAAWRFAKDNEIDLIVLNPGLVTGPILQPTLNFSVAVIVELMKGKNPFNTTHHRFVDVRDVALAHVKALETPSANGRYIIDGPVVTIKDIENVLREFFPDLCIADRNEDITELNSVTFNVCLDKVKSLGIIEFTPTETSLRDTVLSLKEKCLV	soluble
MCISKIDMAKVKKFFKEYLFAKFQCKNRELYRQLKDYDPKDDQKYLKWEHFVEYVEQVLEALDKTSAQIIKEIYIQNKRICELPYSYSTYYAYRKKAIIELLAYLDLKI	soluble
MCKMEITDLIKGMESANVSDIYIFLHEDGPVAFDASAAHLLCYFPEMEMESVFCSDSKRHRIIQGFALEPVLERLAQYPCLVDDDCIRIMGVL	not soluble
MCLAIPMQIESIDGFTARCAAKGVWRDVSLFMMQDAPPEVGDFVMVHVGYAIQKVTEADARSAWELLDQILEENGA	not soluble
